The target in data set [1] is T1, STAMP (Homo sapiens, UniProt Q6EMB2).
T1 construct: Indirect immunofluorescence, using HA-tagged full-length STAMP; expressed in transfected cells; host or cells: U2OS.rGR
The experiment in a line: siRNA assay: fold repression by GR of AP-1/Luc reporter in U2OS.rGR cells. The data set is classed as cell-based. Conditions: 500 ng siRNA, without HA/STAMP plasmid. The procedure:
U2OS.rGR cells were transiently transfected with (FIG. 5E) or without (FIG. 5F) HA/STAMP plasmid (100 ng) and ±500 ng of STAMP siRNA, or β-actin siRNA, plus AP-1/Luc reporter (20 ng) and the Renilla control (10 ng) plasmid. The cells were processed and the fold repression with each treatment was calculated as described in FIG. 5A. The average values were then plotted (±S.E.M., n=4-5 (FIG. 5D) and 7 (FIG. 5E); *, P≦0.032; **, P=0.0022).
Four different siRNA oligonucleotides for STAMP were designed and synthesized by Qiagen:
A control β-actin siRNA was also purchased from Qiagen. U2OS.rGR cells were seeded at 50,000 cells per well in 24 wells plate the day before transfection. DNA (STAMP plasmid and AP-1/Luc reporter; total=150 ng) together with 500 ng siRNA were mixed with 1.6 μl Lipofectamine 2000 (Invitrogen), allowed to stand at room temperature for 15 min, and then added to FBS-free DMEM pre-washed cells. Four hours later, the cells were re-fed with DMEM/10% FBS (containing G418), allowed to recover for 2 h, and re-fed with DMEM/10% FBS (containing G418) containing appropriate hormone dilutions±PMA. The cells were harvested and Luciferase activity was determined as described above in the standard transient transfection studies.

Data set [2] concerns the target T2, TIF2.4 (Homo sapiens, UniProt Q15596).
T2 sequence (Q15596 624-1010 limits assumed): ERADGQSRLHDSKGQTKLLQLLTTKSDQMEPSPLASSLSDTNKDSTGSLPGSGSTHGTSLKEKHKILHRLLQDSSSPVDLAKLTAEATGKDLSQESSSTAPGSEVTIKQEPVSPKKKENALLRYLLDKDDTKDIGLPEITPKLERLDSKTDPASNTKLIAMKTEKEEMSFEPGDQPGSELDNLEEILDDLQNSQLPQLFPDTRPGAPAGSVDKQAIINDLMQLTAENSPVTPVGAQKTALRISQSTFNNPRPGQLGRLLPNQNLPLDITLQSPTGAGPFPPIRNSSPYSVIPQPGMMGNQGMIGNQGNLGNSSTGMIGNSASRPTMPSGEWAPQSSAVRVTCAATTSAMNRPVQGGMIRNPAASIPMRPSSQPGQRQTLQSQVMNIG
The experiment in a line: Cell-free pulldown of [35S]-labeled STAMP constructs by GST/TIF2.4. The data set is classed as binding. Conditions: compared with GST itself. The text has this:
(§1) FIGS. 7A and 7B illustrate the domains of STAMP that bind to TIF2.4 (FIG. 7A) and GR (FIG. 7B) in cell-free pulldown assays. Bacterially expressed GST-chimeras (GST/TIF2.4 in FIG. 7A and GST/STAMP segments in FIG. 7B) were immobilized on glutathione-Sepharose beads. The [^35S]methionine labeled STAMP fragments (FIG. 7A) or wild type GR (FIG. 7B) that were retained on the matrix by binding to the GST chimeras were separated on SDS PAGE gels and visualized by autoradiography. Specific binding was seen as when the GST/TIF2.4 or GST/STAMP bands were darker than the GST control bands. […] Similar results were obtained in a second experiment.
(§2) Template DNA plasmids (1 μg), 40 μl of Promega TNT (SP6) quick coupled transcription/translation system master mixture, and 2 μl of [^35S]methionine (Amersham Biosciences) were brought up to a total volume of 50 μl with H2O and incubated at 30° C. for 90 min according to the manufacturer's (Promega) recommendations. If hormone stimulation is needed, hormones (Dex, etc) were added into the transcription-translation reaction during the 30° C. incubation to both increase the stability of the synthesized GR and to cause activation of the GR-steroid complexes.
These assays were conducted generally as described (He et al., 2002). Sonicated bacterial lysates (1 ml) containing overexpressed GST, GST/TIF2.4, or GST/STAMP-956C were incubated with 160 μl of glutathione-Sepharose 4B beads for 1 hr at 0° C. The mixture was centrifuged (12,000×g), the supernatant was discarded, and the pellet was washed with phosphate-buffered saline (3×1 ml). Each 20-μl sample of immobilized GST or GST-chimera was then incubated overnight with 10 μl of ^35S-labeled in vitro translation product. The matrix was washed with phosphate-buffered saline (4×1 ml). The immobilized proteins were removed from the beads by heating at 90° C. for 5 min in 20 μl of 2×SDS loading buffer. The proteins were separated on 8-10% SDS-PAGE gels and detected by radio-autoradiography.

Data set [3] has as its target T2, TIF2.4. The experiment in a line: Mammalian two-hybrid assay in CV-1 cells (pFRLuc reporter) with TIF2.4. The data set is classed as cell-based. Set-up: expressed in transfected cells; host or cells: CV-1. The text has this: FIG. 2A-2C illustrate the isolation and characterization of the partial clone of the protein that binds to TIF2.4. […] Five clones were obtained but only two (clones I and V) contained a protein that was needed for colony growth in the presence of the pSos/TIF2.4 fusion protein. After initial screening, only clone I (also named 6-6CL1) was selected for further investigation. FIG. 2B and FIG. 2C illustrate the selectivity of 6-6CL1 interactions with TIF2.4 in mammalian two-hybrid assays. Triplicate samples of CV-1 cells in 24-well plates were transiently transfected with the indicated GAL-DBD and VP16-AD plasmids along with the GAL4-regulated reporter, pFRLuc. The relative luciferase activity, normalized for the activity of the internal Renilla control, was determined and plotted as the average±S.D. The much lower activity of GAL/TIF2.4m123 was previously shown not to be due to unequal levels of protein expression (He et al., 2002). Similar results were obtained in three additional experiments. FIG. 2D and FIG. 2E provide a comparison of binding to 6-6CL1 by similarly positioned domains of SRC-1 and TIF2. Triplicate samples of CV-1 cells in 24-well plates were analyzed as in (B&C) after being transiently transfected with GAL±6-6CL1 constructs and pFRLuc reporter along with VP16 chimeras of SRC-1 (FIG. 2D) or TIF2 (FIG. 2E) segments. Similar results for SRC-1 were obtained in two additional experiments (ND=not determined). Western blots (FIG. 2F) indicate that the low activity of TIF2(1140C) (see FIG. 1) is not due to inadequate protein expression.
FIGS. 6A and 6B illustrate the domains of STAMP that interact with TIF2.4 (FIG. 6A) and GR (FIG. 6B) in the mammalian two-hybrid assay. […] These CV-1 cells were also transfected with GAL fused to the indicated segments of STAMP along with the FRLuc reporter and Renilla control plasmids. After determining the relative luciferase activities as described in FIG. 2B and 2C, the average values±S.E.M. from 2-5 experiments were plotted. The average fold increase for VP16/TIF2.4 with GAL/STAMP(623-834) in FIG. 6A was 11.0±3.0 (SEM, n=5) above the VP16 control. The values in parentheses above the data bars in FIG. 6B indicate the fold increased interaction ±1 μM Dex.
These assays were conducted as described (He et al., 2002). In particular, the recommended procedure for the Mammalian Matchmaker two-hybrid assay kit (Clontech) was modified slightly by changing from a chloramphenicol acetyltransferase reporter to a Luciferase Reporter pFRLuc (Stratagene), which is under the control of five repeats of the upstream activating sequence for the binding of GAL4.

Data set [4] deals with T3, glucocorticoid receptor (GR) (Rattus norvegicus, UniProt P06536).
T3 construct: made in house; host or cells: cell-free coupled transcription/translation (Promega TNT SP6); the GST partner was made in E. coli BL21
T3 sequence (P06536 1-795): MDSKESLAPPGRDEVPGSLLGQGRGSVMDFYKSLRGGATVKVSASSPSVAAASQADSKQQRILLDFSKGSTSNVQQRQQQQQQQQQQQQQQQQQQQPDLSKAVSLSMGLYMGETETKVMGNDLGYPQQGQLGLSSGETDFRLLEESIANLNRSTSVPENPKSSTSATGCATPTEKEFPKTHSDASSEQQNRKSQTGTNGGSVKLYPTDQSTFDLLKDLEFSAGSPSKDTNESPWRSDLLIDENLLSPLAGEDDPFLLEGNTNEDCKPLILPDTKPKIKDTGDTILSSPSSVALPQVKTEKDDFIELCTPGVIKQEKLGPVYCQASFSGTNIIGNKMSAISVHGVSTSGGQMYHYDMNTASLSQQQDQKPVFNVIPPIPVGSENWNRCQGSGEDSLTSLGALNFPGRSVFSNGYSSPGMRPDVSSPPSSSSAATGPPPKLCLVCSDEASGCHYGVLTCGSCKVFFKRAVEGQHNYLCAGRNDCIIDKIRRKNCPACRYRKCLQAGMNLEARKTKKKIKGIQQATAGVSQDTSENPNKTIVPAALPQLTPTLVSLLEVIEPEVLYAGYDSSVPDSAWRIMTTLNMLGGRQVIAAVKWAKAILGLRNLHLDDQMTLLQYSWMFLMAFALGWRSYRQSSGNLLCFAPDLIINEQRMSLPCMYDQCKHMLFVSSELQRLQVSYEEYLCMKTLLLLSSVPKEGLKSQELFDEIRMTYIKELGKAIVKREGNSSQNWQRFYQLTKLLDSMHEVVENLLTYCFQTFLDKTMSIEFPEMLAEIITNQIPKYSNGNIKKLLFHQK
T3 sequence (Q6EMB2 960-1281 F1267S partner limits assumed): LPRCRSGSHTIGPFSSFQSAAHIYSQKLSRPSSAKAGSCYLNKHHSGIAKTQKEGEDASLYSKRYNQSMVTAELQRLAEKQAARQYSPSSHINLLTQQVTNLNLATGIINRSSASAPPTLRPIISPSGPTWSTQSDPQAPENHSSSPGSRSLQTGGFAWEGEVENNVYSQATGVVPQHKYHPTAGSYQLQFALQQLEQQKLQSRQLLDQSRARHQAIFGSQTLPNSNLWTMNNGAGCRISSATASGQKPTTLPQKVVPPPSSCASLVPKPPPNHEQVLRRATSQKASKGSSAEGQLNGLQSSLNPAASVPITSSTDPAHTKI
The experiment in a line: Cell-free pulldown of [35S]-labeled GR by GST/STAMP segment. The data set is classed as binding. The following applies: with and without steroid.
Excerpt: as §1, §2
These assays were conducted generally as described (He et al., 2002). […] The proteins were separated on 8-10% SDS-PAGE gels and detected by radio-autoradiography.

T1 sequence (Q6EMB2 5-1281 A149V/F1267S limits assumed): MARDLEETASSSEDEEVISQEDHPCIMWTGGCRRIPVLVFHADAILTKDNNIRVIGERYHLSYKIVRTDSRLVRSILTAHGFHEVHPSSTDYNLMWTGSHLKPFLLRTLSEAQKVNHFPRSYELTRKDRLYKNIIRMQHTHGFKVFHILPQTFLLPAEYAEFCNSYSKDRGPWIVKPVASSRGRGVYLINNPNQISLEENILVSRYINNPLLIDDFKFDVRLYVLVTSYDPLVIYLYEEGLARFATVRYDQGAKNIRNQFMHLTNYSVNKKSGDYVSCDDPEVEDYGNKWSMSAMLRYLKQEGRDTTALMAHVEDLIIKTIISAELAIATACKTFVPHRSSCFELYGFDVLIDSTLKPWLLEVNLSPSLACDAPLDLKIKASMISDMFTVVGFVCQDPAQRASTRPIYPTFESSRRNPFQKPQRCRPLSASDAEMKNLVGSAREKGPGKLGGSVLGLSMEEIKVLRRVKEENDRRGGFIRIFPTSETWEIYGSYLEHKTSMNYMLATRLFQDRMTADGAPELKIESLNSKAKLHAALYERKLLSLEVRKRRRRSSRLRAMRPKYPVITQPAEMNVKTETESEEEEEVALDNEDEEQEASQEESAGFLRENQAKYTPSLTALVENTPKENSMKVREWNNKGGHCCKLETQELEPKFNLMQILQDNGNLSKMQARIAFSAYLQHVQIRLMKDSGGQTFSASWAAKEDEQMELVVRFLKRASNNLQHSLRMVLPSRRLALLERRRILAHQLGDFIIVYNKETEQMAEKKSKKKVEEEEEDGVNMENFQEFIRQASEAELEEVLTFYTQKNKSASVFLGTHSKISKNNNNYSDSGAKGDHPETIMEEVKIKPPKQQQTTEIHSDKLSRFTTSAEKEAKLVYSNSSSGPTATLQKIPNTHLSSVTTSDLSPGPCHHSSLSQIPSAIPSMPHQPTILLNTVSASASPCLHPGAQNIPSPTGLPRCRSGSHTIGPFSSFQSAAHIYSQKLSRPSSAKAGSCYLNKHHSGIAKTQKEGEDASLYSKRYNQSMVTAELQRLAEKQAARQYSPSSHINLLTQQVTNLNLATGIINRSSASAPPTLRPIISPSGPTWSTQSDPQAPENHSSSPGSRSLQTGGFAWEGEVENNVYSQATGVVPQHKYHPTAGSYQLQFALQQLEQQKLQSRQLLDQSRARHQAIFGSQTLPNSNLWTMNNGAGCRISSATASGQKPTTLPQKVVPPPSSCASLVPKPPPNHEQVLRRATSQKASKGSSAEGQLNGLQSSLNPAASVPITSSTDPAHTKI

As to “CAGCACTGACTATAACCTAAT (chemistry not given here) [STAMP siRNA #3, siRNA oligonucleotide for STAMP synthesized by Qiagen]”, the “repressive activity of GR-agonist complexes (endogenous STAMP)” value in data set [1] is reported as “can reduce the repressive activity of GR-agonist complexes”.

As for “GAGGGCAATGAGGCCAAAATA (chemistry not given here) [STAMP siRNA #4, siRNA oligonucleotide for STAMP synthesized by Qiagen]”, the “repressive activity of GR-agonist complexes (endogenous STAMP)” value in data set [1] is “can reduce the repressive activity of GR-agonist complexes”.

B1: N623: STAMP fragment amino acids 1-623, TTL domain but not the CID region (protein)
chain: MARDLEETASSSEDEEVISQEDHPCIMWTGGCRRIPVLVFHADAILTKDNNIRVIGERYHLSYKIVRTDSRLVRSILTAHGFHEVHPSSTDYNLMWTGSHLKPFLLRTLSEAQKVNHFPRSYELTRKDRLYKNIIRMQHTHGFKVFHILPQTFLLPAEYAEFCNSYSKDRGPWIVKPVASSRGRGVYLINNPNQISLEENILVSRYINNPLLIDDFKFDVRLYVLVTSYDPLVIYLYEEGLARFATVRYDQGAKNIRNQFMHLTNYSVNKKSGDYVSCDDPEVEDYGNKWSMSAMLRYLKQEGRDTTALMAHVEDLIIKTIISAELAIATACKTFVPHRSSCFELYGFDVLIDSTLKPWLLEVNLSPSLACDAPLDLKIKASMISDMFTVVGFVCQDPAQRASTRPIYPTFESSRRNPFQKPQRCRPLSASDAEMKNLVGSAREKGPGKLGGSVLGLSMEEIKVLRRVKEENDRRGGFIRIFPTSETWEIYGSYLEHKTSMNYMLATRLFQDRMTADGAPELKIESLNSKAKLHAALYERKLLSLEVRKRRRRSSRLRAMRPKYPVITQPAEMNVKTETESEEEEEVALDNEDEEQEASQEESAGFLRENQAKYTPSLTALVE
modifications: GAL4 DBD fusion
notes: STAMP fragment amino acids 1-623, TTL domain but not the CID region
On to B1, for which the “binding to GST/TIF2.4” value in data set [2] is on record as “neither the amino terminal (N623) nor the C-terminal (834C) fragments exhibit significantly more binding to GST/TIF2.4 than to GST itself”. Moreover, the “interaction with TIF2.4” value in data set [3] is recorded as “weak response”.

B2: GST/STAMP(956C): GST chimera of STAMP fragment amino acids 956 to 1277 (protein)
chain: T3 sequence (Q6EMB2 960-1281 F1267S partner limits assumed)
modifications: GST fusion
Turning to B2, in data set [4], the “binding of full length GR” value was “this binding is steroid-independent”.

Source of the values: patent US7867500B2, “Cofactor that modulates steroid receptor activities” (The United States of America as represented by the …, priority 2004, dated 2011).
